B1: Protein THEMIS (Homo sapiens), Q8N1K5-1 (parent)
chain: MALSLEEFVHSLDLRTLPRVLEIQAGIYLEGSIYEMFGNECCFSTGEVIKITGLKVKKIIAEICEQIEGCESLQPFELPMNFPGLFKIVADKTPYLTMEEITRTIHIGPSRLGHPCFYHQKDIKLENLIIKQGEQIMLNSVEEIDGEIMVSCAVARNHQTHSFNLPLSQEGEFYECEDERIYTLKEIVEWKIPKNRTRTVNLTDFSNKWDSTNPFPKDFYGTLILKPVYEIQGVMKFRKDIIRILPSLDVEVKDITDSYDANWFLQLLSTEDLFEMTSKEFPIVTEVIEAPEGNHLPQSILQPGKTIVIHKKYQASRILASEIRSNFPKRHFLIPTSYKGKFKRRPREFPTAYDLEIAKSEKEPLHVVATKAFHSPHDKLSSVSVGDQFLVHQSETTEVLCEGIKKVVNVLACEKILKKSYEAALLPLYMEGGFVEVIHDKKQYPISELCKQFRLPFNVKVSVRDLSIEEDVLAATPGLQLEEDITDSYLLISDFANPTECWEIPVGRLNMTVQLVSNFSRDAEPFLVRTLVEEITEEQYYMMRRYESSASHPPPRPPKHPSVEETKLTLLTLAEERTVDLPKSPKRHHVDITKKLHPNQAGLDSKVLIGSQNDLVDEEKERSNRGATAIAETFKNEKHQK
partner: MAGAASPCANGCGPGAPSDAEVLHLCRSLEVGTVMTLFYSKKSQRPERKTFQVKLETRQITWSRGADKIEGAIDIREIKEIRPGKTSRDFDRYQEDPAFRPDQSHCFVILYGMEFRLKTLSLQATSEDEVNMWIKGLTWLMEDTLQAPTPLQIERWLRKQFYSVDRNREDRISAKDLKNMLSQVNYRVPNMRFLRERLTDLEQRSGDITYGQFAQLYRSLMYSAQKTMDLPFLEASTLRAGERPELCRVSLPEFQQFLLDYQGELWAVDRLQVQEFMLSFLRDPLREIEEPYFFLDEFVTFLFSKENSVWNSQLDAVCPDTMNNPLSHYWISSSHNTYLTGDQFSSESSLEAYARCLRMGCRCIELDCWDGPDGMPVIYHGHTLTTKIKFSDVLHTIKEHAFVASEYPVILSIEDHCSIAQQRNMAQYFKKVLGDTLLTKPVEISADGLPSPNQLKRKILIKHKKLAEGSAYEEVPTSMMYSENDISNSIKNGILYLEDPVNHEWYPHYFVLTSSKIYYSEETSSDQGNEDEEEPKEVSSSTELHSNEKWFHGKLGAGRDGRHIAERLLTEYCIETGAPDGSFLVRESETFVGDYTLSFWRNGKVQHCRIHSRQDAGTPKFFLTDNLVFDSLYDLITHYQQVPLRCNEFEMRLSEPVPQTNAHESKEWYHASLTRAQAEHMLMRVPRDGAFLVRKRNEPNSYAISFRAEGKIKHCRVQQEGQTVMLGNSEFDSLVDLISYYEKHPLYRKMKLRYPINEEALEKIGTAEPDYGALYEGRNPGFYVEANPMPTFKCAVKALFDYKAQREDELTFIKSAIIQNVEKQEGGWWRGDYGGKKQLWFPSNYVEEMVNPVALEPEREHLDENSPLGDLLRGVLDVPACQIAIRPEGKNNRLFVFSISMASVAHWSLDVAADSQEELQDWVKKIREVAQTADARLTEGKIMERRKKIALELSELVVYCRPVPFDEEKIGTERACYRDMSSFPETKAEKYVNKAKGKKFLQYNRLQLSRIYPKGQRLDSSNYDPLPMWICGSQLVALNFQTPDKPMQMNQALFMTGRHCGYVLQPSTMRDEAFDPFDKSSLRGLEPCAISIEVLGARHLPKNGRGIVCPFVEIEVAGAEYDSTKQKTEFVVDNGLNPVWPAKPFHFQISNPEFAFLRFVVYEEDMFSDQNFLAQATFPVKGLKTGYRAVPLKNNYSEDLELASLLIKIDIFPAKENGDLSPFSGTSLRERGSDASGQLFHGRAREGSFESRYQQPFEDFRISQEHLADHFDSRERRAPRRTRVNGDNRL
B2: Protein THEMIS (Mus musculus), Q8BGW0 (parent)
chain: MALSLEEFVYSLDLRTLPRVLEIQSGIYFEGSVYEMFGNECCLSTGEVIKITGLKIKKMMAEICEGAIGGCESQKPFELPMNFPGLFKVMADKTPYLSIEEITRTVNIGPSRLGHPCFYHLKDIKLENLIIKQGEPIRFNSVEEINGETLVNCGVVRNHQSHSFTLPLSQEGEFYECEDEHIYTLKEIVEWKIPKNRTRTVKLTDFSNKWDSTNPFPEDFYGTLILKPVYEIQGVLKFQKDIVRILPSLDVEVKDITDSYDANWFLQLLSTDDLFEMTSKEFPVVAEVVEISQGNHLPQSILQREKTIVIHKKYQASRILASEIRSNFPKRHFLIPISYKGKFKRRPREFPTAYDLQIAKSRKETLHVVATKAFHTLHKELSPVSVGDQFLVHHSETTEVVFEGTRKVNVLTCEKVLNKTREDAQLPLYMEGGFVEVIHDKKQYQISELCTQFCWPFNVKVAVRDLSIKDDILAATPGLQLEEDITDSYLLISDFANPEECWEIPMSRLNMTVRLVNGSSLPADAGLLQVRSFVEEITEEQYYMMRRYESSLSHPPPRPPKHPSAEEMKLTLLSLAEERTINLPKSLKSHHVDRPKKLPSDESGQDSRAPVGFQNDVADVERQKSKHGPLQPQAPL
B3: Protein THEMIS (Homo sapiens), Q8N1K5-1 (parent)
chain: B1 chain

The results in this text go back to IntAct's records for PubMed 23460737.

The variants in one assay derive from B1. To be noted: with plcg1_human PLCG1, P19174.
For the variant P555A;P558A, the “effect of a mutation on the interaction” value is recorded as “decreasing interaction strength”.

The variants in a further assay derive from B2. The following applies: with grb2_human GRB2, P62993.
grb2_human GRB2, P62993, sequence (P62993 whole entry, looked up): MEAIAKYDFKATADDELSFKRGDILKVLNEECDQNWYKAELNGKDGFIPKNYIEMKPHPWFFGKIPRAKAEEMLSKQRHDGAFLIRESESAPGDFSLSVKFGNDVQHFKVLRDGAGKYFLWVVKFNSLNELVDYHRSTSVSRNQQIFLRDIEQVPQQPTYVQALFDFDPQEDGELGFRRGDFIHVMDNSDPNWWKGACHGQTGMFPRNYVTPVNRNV
As for P557A;P560A, the “effect of a mutation on the interaction” value is recorded as “disrupting interaction strength”.

The variants in the next assay derive from B3. The following applies: with grb2_human GRB2, P62993.
Turning to P555A;P558A, the “effect of a mutation on the interaction” value is “disrupting interaction strength”.

Another assay covers variants of B3. To be noted: with grb2_human GRB2, P62993. This is another data set of the same source.
For P555A;P558A, the “effect of a mutation on the interaction” value is on record as “disrupting interaction strength”.

As for P582A;P585A, the “effect of a mutation on the interaction” value is “with no effect”.

Variants of B3 are the subject of the next assay. To be noted: with grb2_human GRB2, P62993. This is another data set of the same source.
Regarding P557A, the “effect of a mutation on the interaction” value was “disrupting interaction strength”.

Take R556A: the “effect of a mutation on the interaction” value is reported as “disrupting interaction strength”.

Consider K559A, for which the “effect of a mutation on the interaction” value is listed as “disrupting interaction strength”.

With P554A, the “effect of a mutation on the interaction” value was “disrupting interaction strength”.

In another assay the parent is B3. To be noted: with grb2_human GRB2, P62993. This is another data set of the same source.
With Y540F;Y541F, the “effect of a mutation on the interaction” value is given as “disrupting interaction strength”.

The variants in the next assay derive from B3. To be noted: with grb2_human GRB2, P62993. This is another data set of the same source.
On to Y540F;Y541F, for which the “effect of a mutation on the interaction” value is “with no effect”.

On to Y540A;Y541A, for which the “effect of a mutation on the interaction” value is “with no effect”.
